US12679878B2, “CRF2 receptor agonists and their use in therapy” (SANOFI, priority 2020, dated 2026)
Starred links: 1 amine or outer side, 2 acyl side, 3 side chain; linkers in the order of their positions; H or OH if unused. Non-standard residues stand in square brackets, D forms with d. Residues, ends and D or L forms follow the SMILES beside them. Groups on a side chain read outwards from the residue. No end group written: not given here. *: point of attachment. C20 diacid = O=C(O)CCCCCCCCCCCCCCCCCCC(=O)*; C18 diacid = O=C(O)CCCCCCCCCCCCCCCCC(=O)*; γGlu = O=C(O)[C@H](CCC(=O)[*:2])N[*:1]; Palmitoyl = CCCCCCCCCCCCCCCC(=O)*; AEEA = NCCOCCOCC(=O)O; Aib = CC(C)(N)C(=O)O

B1: peptide of SEQ ID NO: 160 (peptide)
peptide: Ac-IVLSLD[dV]PIKLK([AEEA-AEEA-γGlu-C18 diacid])QILLEQERQE[Aib]EREQAETNKQILEQV-NH2
SMILES: CC[C@H](C)[C@H](NC(C)=O)C(=O)N[C@H](C(=O)N[C@@H](CC(C)C)C(=O)N[C@@H](CO)C(=O)N[C@@H](CC(C)C)C(=O)N[C@@H](CC(=O)O)C(=O)N[C@@H](C(=O)N1CCC[C@H]1C(=O)N[C@H](C(=O)N[C@@H](CCCCN)C(=O)N[C@@H](CC(C)C)C(=O)N[C@@H](CCCCNC(=O)COCCOCCNC(=O)COCCOCCNC(=O)CC[C@H](NC(=O)CCCCCCCCCCCCCCCCC(=O)O)C(=O)O)C(=O)N[C@@H](CCC(N)=O)C(=O)N[C@H](C(=O)N[C@@H](CC(C)C)C(=O)N[C@@H](CC(C)C)C(=O)N[C@@H](CCC(=O)O)C(=O)N[C@@H](CCC(N)=O)C(=O)N[C@@H](CCC(=O)O)C(=O)N[C@@H](CCCNC(=N)N)C(=O)N[C@@H](CCC(N)=O)C(=O)N[C@@H](CCC(=O)O)C(=O)NC(C)(C)C(=O)N[C@@H](CCC(=O)O)C(=O)N[C@@H](CCCNC(=N)N)C(=O)N[C@@H](CCC(=O)O)C(=O)N[C@@H](CCC(N)=O)C(=O)N[C@@H](C)C(=O)N[C@@H](CCC(=O)O)C(=O)N[C@H](C(=O)N[C@@H](CC(N)=O)C(=O)N[C@@H](CCCCN)C(=O)N[C@@H](CCC(N)=O)C(=O)N[C@H](C(=O)N[C@@H](CC(C)C)C(=O)N[C@@H](CCC(=O)O)C(=O)N[C@@H](CCC(N)=O)C(=O)N[C@H](C(N)=O)C(C)C)[C@@H](C)CC)[C@@H](C)O)[C@@H](C)CC)[C@@H](C)CC)C(C)C)C(C)C
B2: peptide of SEQ ID NO: 161 (peptide)
peptide: Ac-IVLSLD[dV]PIKLK([AEEA-AEEA-γGlu-C18 diacid])QILLEQERQE[Aib]EREQAEKNEQILEQV-NH2
SMILES: CC[C@H](C)[C@H](NC(C)=O)C(=O)N[C@H](C(=O)N[C@@H](CC(C)C)C(=O)N[C@@H](CO)C(=O)N[C@@H](CC(C)C)C(=O)N[C@@H](CC(=O)O)C(=O)N[C@@H](C(=O)N1CCC[C@H]1C(=O)N[C@H](C(=O)N[C@@H](CCCCN)C(=O)N[C@@H](CC(C)C)C(=O)N[C@@H](CCCCNC(=O)COCCOCCNC(=O)COCCOCCNC(=O)CC[C@H](NC(=O)CCCCCCCCCCCCCCCCC(=O)O)C(=O)O)C(=O)N[C@@H](CCC(N)=O)C(=O)N[C@H](C(=O)N[C@@H](CC(C)C)C(=O)N[C@@H](CC(C)C)C(=O)N[C@@H](CCC(=O)O)C(=O)N[C@@H](CCC(N)=O)C(=O)N[C@@H](CCC(=O)O)C(=O)N[C@@H](CCCNC(=N)N)C(=O)N[C@@H](CCC(N)=O)C(=O)N[C@@H](CCC(=O)O)C(=O)NC(C)(C)C(=O)N[C@@H](CCC(=O)O)C(=O)N[C@@H](CCCNC(=N)N)C(=O)N[C@@H](CCC(=O)O)C(=O)N[C@@H](CCC(N)=O)C(=O)N[C@@H](C)C(=O)N[C@@H](CCC(=O)O)C(=O)N[C@@H](CCCCN)C(=O)N[C@@H](CC(N)=O)C(=O)N[C@@H](CCC(=O)O)C(=O)N[C@@H](CCC(N)=O)C(=O)N[C@H](C(=O)N[C@@H](CC(C)C)C(=O)N[C@@H](CCC(=O)O)C(=O)N[C@@H](CCC(N)=O)C(=O)N[C@H](C(N)=O)C(C)C)[C@@H](C)CC)[C@@H](C)CC)[C@@H](C)CC)C(C)C)C(C)C
B3: peptide of SEQ ID NO: 171 (peptide)
peptide: IVLSLD[dV]PIKLK([AEEA-AEEA-γGlu-γGlu-C18 diacid])QILLKQERQK[Aib]QREQAEKNKQILAQV-NH2
modifications: N-terminus assumed
SMILES: CC[C@H](C)[C@H](N)C(=O)N[C@H](C(=O)N[C@@H](CC(C)C)C(=O)N[C@@H](CO)C(=O)N[C@@H](CC(C)C)C(=O)N[C@@H](CC(=O)O)C(=O)N[C@@H](C(=O)N1CCC[C@H]1C(=O)N[C@H](C(=O)N[C@@H](CCCCN)C(=O)N[C@@H](CC(C)C)C(=O)N[C@@H](CCCCNC(=O)COCCOCCNC(=O)COCCOCCNC(=O)CC[C@H](NC(=O)CC[C@H](NC(=O)CCCCCCCCCCCCCCCCC(=O)O)C(=O)O)C(=O)O)C(=O)N[C@@H](CCC(N)=O)C(=O)N[C@H](C(=O)N[C@@H](CC(C)C)C(=O)N[C@@H](CC(C)C)C(=O)N[C@@H](CCCCN)C(=O)N[C@@H](CCC(N)=O)C(=O)N[C@@H](CCC(=O)O)C(=O)N[C@@H](CCCNC(=N)N)C(=O)N[C@@H](CCC(N)=O)C(=O)N[C@@H](CCCCN)C(=O)NC(C)(C)C(=O)N[C@@H](CCC(N)=O)C(=O)N[C@@H](CCCNC(=N)N)C(=O)N[C@@H](CCC(=O)O)C(=O)N[C@@H](CCC(N)=O)C(=O)N[C@@H](C)C(=O)N[C@@H](CCC(=O)O)C(=O)N[C@@H](CCCCN)C(=O)N[C@@H](CC(N)=O)C(=O)N[C@@H](CCCCN)C(=O)N[C@@H](CCC(N)=O)C(=O)N[C@H](C(=O)N[C@@H](CC(C)C)C(=O)N[C@@H](C)C(=O)N[C@@H](CCC(N)=O)C(=O)N[C@H](C(N)=O)C(C)C)[C@@H](C)CC)[C@@H](C)CC)[C@@H](C)CC)C(C)C)C(C)C
B4: peptide of SEQ ID NO: 172 (peptide)
peptide: IVLSLD[dV]PIKLK([AEEA-AEEA-γGlu-γGlu-C20 diacid])QILLKQERQK[Aib]QREQAEKNKQILAQV-NH2
modifications: N-terminus assumed
SMILES: CC[C@H](C)[C@H](N)C(=O)N[C@H](C(=O)N[C@@H](CC(C)C)C(=O)N[C@@H](CO)C(=O)N[C@@H](CC(C)C)C(=O)N[C@@H](CC(=O)O)C(=O)N[C@@H](C(=O)N1CCC[C@H]1C(=O)N[C@H](C(=O)N[C@@H](CCCCN)C(=O)N[C@@H](CC(C)C)C(=O)N[C@@H](CCCCNC(=O)COCCOCCNC(=O)COCCOCCNC(=O)CC[C@H](NC(=O)CC[C@H](NC(=O)CCCCCCCCCCCCCCCCCCC(=O)O)C(=O)O)C(=O)O)C(=O)N[C@@H](CCC(N)=O)C(=O)N[C@H](C(=O)N[C@@H](CC(C)C)C(=O)N[C@@H](CC(C)C)C(=O)N[C@@H](CCCCN)C(=O)N[C@@H](CCC(N)=O)C(=O)N[C@@H](CCC(=O)O)C(=O)N[C@@H](CCCNC(=N)N)C(=O)N[C@@H](CCC(N)=O)C(=O)N[C@@H](CCCCN)C(=O)NC(C)(C)C(=O)N[C@@H](CCC(N)=O)C(=O)N[C@@H](CCCNC(=N)N)C(=O)N[C@@H](CCC(=O)O)C(=O)N[C@@H](CCC(N)=O)C(=O)N[C@@H](C)C(=O)N[C@@H](CCC(=O)O)C(=O)N[C@@H](CCCCN)C(=O)N[C@@H](CC(N)=O)C(=O)N[C@@H](CCCCN)C(=O)N[C@@H](CCC(N)=O)C(=O)N[C@H](C(=O)N[C@@H](CC(C)C)C(=O)N[C@@H](C)C(=O)N[C@@H](CCC(N)=O)C(=O)N[C@H](C(N)=O)C(C)C)[C@@H](C)CC)[C@@H](C)CC)[C@@H](C)CC)C(C)C)C(C)C

Experiments:
[1] = molecular target: T1, CRF1R receptor (Homo sapiens, UniProt P34998); test: cAMP activity at anti-target CRF1R, CRF1R-overexpression CHO cell line (Example 9); type: cell-based; settings: CRF1R-overexpression CHO cell line
T1 construct: host or cells: CHO-K1 clone 2
T1 sequence (P34998 24-415): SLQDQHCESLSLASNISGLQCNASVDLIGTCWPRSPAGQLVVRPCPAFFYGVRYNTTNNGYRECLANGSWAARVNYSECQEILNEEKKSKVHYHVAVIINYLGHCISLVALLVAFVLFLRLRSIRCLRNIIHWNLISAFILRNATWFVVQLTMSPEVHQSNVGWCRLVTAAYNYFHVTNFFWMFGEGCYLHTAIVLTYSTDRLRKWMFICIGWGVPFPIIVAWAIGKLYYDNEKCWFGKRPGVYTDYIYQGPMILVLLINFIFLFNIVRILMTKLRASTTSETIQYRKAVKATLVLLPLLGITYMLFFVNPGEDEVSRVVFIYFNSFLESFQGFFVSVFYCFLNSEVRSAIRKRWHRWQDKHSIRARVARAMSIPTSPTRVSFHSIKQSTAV
Procedure: Cells were grown in a T175 culture flask placed at 37° C. to near confluence in medium (DMEM/10% FBS) and collected in 2 ml vials in cell culture medium containing 10% DMSO in a concentration of 10-50 million cells/ml. Each vial contained 1.8 ml cells. The vials were slowly frozen to −80° C. in isopropanol and then transferred in liquid nitrogen for storage. Prior to use, frozen cells were thawed quickly at 37° C. and washed (5 min at 900 rpm) with 20 ml cell buffer (1×HBSS; 20 mM HEPES; 0% or 0.1% HSA). Cells were resuspended in assay buffer (cell buffer plus 2 mM IBMX) and adjusted to a cell density of 1 million cells/ml. For measurement, 5 μl cells (final […]) and 5 μL of test compound were added to a 384-well plate, followed by incubation for 30 minutes at room temperature.
The CAMP content of cells was determined using a kit from Cisbio Corp. (cat. no. 62AM4PEC) based on HTRF (Homogenous Time Resolved Fluorescence). […] The percent activity value (E %) was calculated by setting 1000 nM of urocortin 2 (UCN2) as 100%.
A CRF1R-overexpression CHO cell line was used in this study.

[2] = molecular target: T2, anti-target CRF1R receptor (UniProt P34998 24-415, limits assumed); test: cell-based or functional assay
T2 sequence (looked up): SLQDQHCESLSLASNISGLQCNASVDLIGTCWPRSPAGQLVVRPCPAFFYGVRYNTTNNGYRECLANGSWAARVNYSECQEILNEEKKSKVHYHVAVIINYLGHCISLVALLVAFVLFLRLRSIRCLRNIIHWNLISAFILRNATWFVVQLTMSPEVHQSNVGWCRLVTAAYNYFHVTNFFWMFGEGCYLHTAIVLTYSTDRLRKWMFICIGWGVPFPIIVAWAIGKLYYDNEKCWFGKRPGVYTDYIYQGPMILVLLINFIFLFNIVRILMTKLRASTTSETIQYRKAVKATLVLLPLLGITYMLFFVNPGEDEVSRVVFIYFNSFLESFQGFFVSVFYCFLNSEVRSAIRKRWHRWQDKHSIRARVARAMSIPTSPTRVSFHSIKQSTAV

Row | Molecule | EC50 ([1]; 0% HSA) [nM] | Emax ([1]; read-out: Emax (%)) [%] | EC50[nM] 0% HSA (cAMP, CRF1R-overexpression CHO cells) [2] [nM] | Emax (%) (cAMP, CRF1R-overexpression CHO cells) [2]
1 | CCCCCCCCCCCCCCCC(=O)N[C@@H](CCC(=O)NCCCC[C@H](NC(=O)[C@@H](NC(=O)[C@H](CCCCN)NC(=O)[C@@H](NC(=O)[C@@H]1CCCN1C(=O)[C@@H](NC(=O)[C@H](CC(=O)O)NC(=O)[C@H](CC(C)C)NC(=O)[C@H](CO)NC(=O)[C@H](CC(C)C)NC(=O)[C@@H](NC(=O)[C@@H](N)Cc1ccccc1)[C@@H](C)O)C(C)C)[C@@H](C)O)[C@@H](C)CC)C(=O)N[C@@H](CCC(N)=O)C(=O)N[C@@H](CCCCN)C(=O)N[C@@H](CC(C)C)C(=O)N[C@@H](CC(C)C)C(=O)N[C@@H](CCCCN)C(=O)N[C@@H](CCC(N)=O)C(=O)N[C@@H](CCC(=O)O)C(=O)N[C@@H](CCCCN)C(=O)N[C@@H](CCC(N)=O)C(=O)N[C@@H](CCCCN)C(=O)N[C@@H](CCCCN)C(=O)N[C@@H](CCC(N)=O)C(=O)N[C@@H](CCCNC(=N)N)C(=O)N[C@@H](CCC(N)=O)C(=O)N[C@@H](CCCCN)C(=O)N[C@@H](C)C(=O)N[C@@H](CCCCN)C(=O)N[C@H](C(=O)N[C@@H](C)C(=O)N[C@@H](CCCCN)C(=O)N[C@@H](CCC(N)=O)C(=O)N[C@H](C(=O)N[C@@H](CC(C)C)C(=O)N[C@@H](CCC(=O)O)C(=O)N[C@@H](CCC(N)=O)C(=O)N[C@H](C(N)=O)C(C)C)[C@@H](C)CC)[C@@H](C)O)C(=O)O [compound 9] (H-FTLSLDVPTKIK([γGlu-Palmitoyl])QKLLKQEKQKKQRQKAKTAKQILEQV-NH2) | > 1000 | 14.9 |  | 
2 | B1 |  |  | > 1000 | 20.8
3 | B2 |  |  | > 1000 | 3.42
4 | B3 |  |  | > 1000 | 7.54
5 | B4 |  |  | > 1000 | 25.6
